From paper PMC3358930 (ACS synthetic biology, 2011)
Blank lines part the entries; values can stand above or below the binder they belong to.

What was measured:
[1] = target: T1, D. melanogaster Par-6 PDZ domain (residues 156-255) (D. melanogaster, UniProt O97111 156-255); assay: fluorescence polarisation
T1 sequence (looked up): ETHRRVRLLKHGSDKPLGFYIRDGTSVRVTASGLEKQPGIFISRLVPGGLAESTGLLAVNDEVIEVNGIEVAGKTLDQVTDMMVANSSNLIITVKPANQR

TMR-CGYPKHREMAVDSP = target: T2, TMR-CGYPKHREMAVDSP (Drosophila); assay: fluorescence polarisation
T2 peptide: Ac-C(TMR)GYPKHREMAVDSP-NH2

Kd [1]: 15 µM
Binder: Ac-C(TMR)GYPKHREMAAD-NH2 [TMR-CGYPKHREMAAD]

Kd (TMR-CGYPKHREMAVDSP): 48 µM
B1: PDZ-PxxP-COOH synthetic regulatory system without decoy ([Par-6 156-255]-PPPALPPKHREMAAD) (other, D. melanogaster)
chain: ETHRRVRLLKHGSDKPLGFYIRDGTSVRVTASGLEKQPGIFISRLVPGGLAESTGLLAVNDEVIEVNGIEVAGKTLDQVTDMMVANSSNLIITVKPANQRLPPPALPPKHREMAAD
